# From article PMC11295067
# How the values were obtained:
# [1] = biological target: human Gq heterotrimer (human) (UniProt P50148)
# [2] = biological target: human Gi heterotrimer (human) (UniProt P63096)
# Sequence of human Gi heterotrimer (human) (P63096 whole entry, looked up, one chain of several): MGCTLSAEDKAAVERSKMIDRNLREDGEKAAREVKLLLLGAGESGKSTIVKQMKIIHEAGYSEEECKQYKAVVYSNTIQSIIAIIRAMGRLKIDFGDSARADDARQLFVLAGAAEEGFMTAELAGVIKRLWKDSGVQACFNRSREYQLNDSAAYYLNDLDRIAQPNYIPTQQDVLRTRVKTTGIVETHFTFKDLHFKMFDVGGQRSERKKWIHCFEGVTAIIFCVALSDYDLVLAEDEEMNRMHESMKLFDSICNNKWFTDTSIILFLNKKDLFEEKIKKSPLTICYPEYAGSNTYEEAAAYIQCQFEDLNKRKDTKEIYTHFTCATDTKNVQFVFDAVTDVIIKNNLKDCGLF
# Sequence of human Gq heterotrimer (human) (P50148 whole entry, looked up, one chain of several): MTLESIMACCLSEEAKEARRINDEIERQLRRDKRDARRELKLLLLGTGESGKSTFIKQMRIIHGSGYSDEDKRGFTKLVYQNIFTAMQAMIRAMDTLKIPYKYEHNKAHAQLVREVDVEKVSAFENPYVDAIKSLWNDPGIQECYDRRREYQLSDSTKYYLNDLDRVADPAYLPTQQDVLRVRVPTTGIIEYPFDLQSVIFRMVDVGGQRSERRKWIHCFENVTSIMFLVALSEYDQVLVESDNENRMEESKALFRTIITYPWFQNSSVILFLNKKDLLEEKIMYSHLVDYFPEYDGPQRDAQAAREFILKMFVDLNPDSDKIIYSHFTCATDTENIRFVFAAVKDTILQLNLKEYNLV
substance,measurement,setting,value
Jumping Spider Rhodopsin-1 (JSR1) reconstituted with 9-cis retinal (receptor),"GTPase-Glo assay: GTP depletion by Gq heterotrimer with JSR1/9-cis retinal, after illumination",[1],44%
same,"GTPase-Glo assay: GTP depletion by Gq heterotrimer with JSR1/9-cis retinal, without illumination",[1],7%
same,"GTPase-Glo assay: GTP depletion by Gi heterotrimer with JSR1/9-cis retinal, after illumination",[2],92%
same,"GTPase-Glo assay: GTP depletion by Gi heterotrimer with JSR1/9-cis retinal, without illumination",[2],57%
